The source of these data is US20120129720, “APTAMER THAT RECOGNIZES PEPTIDE” (KANAGAWA PREFECTURAL HOSPITAL ORGANIZATION, published 2012).

In data set [1] the target is T1, His-MIF (His-tag/T7 gene 10 leader/Xpress-MIF fusion) (UniProt P14174 P14174:1-115).
T1 chain: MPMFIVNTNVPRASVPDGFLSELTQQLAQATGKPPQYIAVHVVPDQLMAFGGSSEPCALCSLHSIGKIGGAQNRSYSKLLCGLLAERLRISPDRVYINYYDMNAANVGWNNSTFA
Put plainly: SPR; 600 nM His-MIF. The note with it: MIF 115 aa; ATGen. How it is done: (§1) A molecular interaction between each of the RNA aptamers and each of fusion proteins, i.e., a binding ability of each of the RNA aptamers to each of the fusion proteins was analyzed using surface plasmon resonance. The analysis of the binding ability was performed using BiacoreX (GE Healthcare UK Ltd.) according to the instruction thereof. Specifically, first, polyadenine having 20 bases was added to the 3′-end of the RNA aptamer. Thus, polyadenine-added RNA aptamer was prepared. This was then heated at 95° C. for 5 minutes and rapidly cooled on ice. Biotinylated polythymine having 20 bases obtained by biotinylating the 5′-end of polythymine had been bound to a streptavidin chip (Sensor chip SA, GE Healthcare UK Ltd.). The polyadenine-added RNA aptamer was introduced into a flow cell on the streptavidin chip using a running buffer. At this stage, the polyadenine-added RNA aptamer was immobilized on the chip via the biotinylated polythymine by complementary binding between poly A of the polyadenine-added RNA aptamer and the biotinylated polythymine. The polyadenine-added RNA aptamer was caused to bind to the biotinylated polythymine until a resonance unit (RU) (resonance unit; 1 RU=1 pg/mm²) reaches 700 RU. Subsequently, HBS (Hepes Buffered Saline) containing the fusion protein with a predetermined concentration was introduced into the chip using a running buffer, and a signal (RU) was measured. The composition of the running buffer includes 10 mmol/L HEPES (4-(2-hydroxyethyl)-1-piperazine ethanesulfonic acid), 150 mmol/L sodium chloride, 0.1 mmol/L magnesium acetate, and 0.01% Tween (registered trademark) 20 (pH 7.2). As a control, an introduction of the fusion protein and a measurement of a signal were performed in the same manner as described above using a chip to which biotinylated polythymine had been bound, on which no polyadenine-added RNA aptamer had been immobilized.
A binding ability of each of these RNA aptamers to His-MIF was analyzed by surface plasmon resonance in the same manner as in “1. (4) Molecular interaction analysis” of Example 1.
Background: SPR reads the build-up and loss of mass on a sensor chip optically.

Data set [2] concerns the target T1, His-MIF (His-tag/T7 gene 10 …). In words: SPR; 600 nM His-MIF. The note with it: MIF 115 aa, ATGen. The method, then: as §1
A binding ability of each of the RNA pools in the respective rounds to His-MIF was analyzed by surface plasmon resonance in the same manner as in “1. (4) Molecular interaction analysis” of Example 1. […] N40 (control RNA) also was analyzed in the same manner as mentioned above.

Data set [3] has the same target. Put plainly: SPR; 10 mM HEPES, 150 mM NaCl, 0.1 mM Mg acetate, 0.01% Tween 20, pH 7.2; RNA immobilised. The note with it: MIF 115 aa; ATGen; label: biotin-T20 hybridised to tail; stem-loop. The method, then: as §1, with “The polyadenine-added RNA aptamer was caused to bind to the biotinylated polythymine until a resonance unit (RU) (resonance unit; 1 RU=1 pg/mm²) reaches 700 RU.” left out, “The composition of the running buffer includes 10 mmol/L HEPES (4-(2-hydroxyethyl)-1-piperazine ethanesulfonic acid), 150 mmol/L sodium chloride, 0.1 mmol/L magnesium acetate, and 0.01% Tween (registered trademark) 20 (pH 7.2). As a control, an introduction of the fusion protein and a measurement of a signal were performed in the same manner as described above using a chip to which biotinylated polythymine had been bound, on which no polyadenine-added RNA aptamer had been immobilized.” left out

For data set [4] the target is unchanged. Put plainly: SPR; 600 nM His-MIF; excellent binding. Particulars: MIF 115 aa; ATGen. The method, then: as §1, with “The polyadenine-added RNA aptamer was caused to bind to the biotinylated polythymine until a resonance unit (RU) (resonance unit; 1 RU=1 pg/mm²) reaches 700 RU.” left out, “The composition of the running buffer includes 10 mmol/L HEPES (4-(2-hydroxyethyl)-1-piperazine ethanesulfonic acid), 150 mmol/L sodium chloride, 0.1 mmol/L magnesium acetate, and 0.01% Tween (registered trademark) 20 (pH 7.2). As a control, an introduction of the fusion protein and a measurement of a signal were performed in the same manner as described above using a chip to which biotinylated polythymine had been bound, on which no polyadenine-added RNA aptamer had been immobilized.” left out
A binding ability of each of these RNA aptamers to His-MIF was analyzed by surface plasmon resonance in the same manner as in “1. […]

The target is the same in data set [5]. In words: SPR; same as shot47. The note with it: MIF 115 aa, ATGen, stem-loop. How it is done:
as §1, with “The polyadenine-added RNA aptamer was caused to bind to the biotinylated polythymine until a resonance unit (RU) (resonance unit; 1 RU=1 pg/mm²) reaches 700 RU.” left out, “The composition of the running buffer includes 10 mmol/L HEPES (4-(2-hydroxyethyl)-1-piperazine ethanesulfonic acid), 150 mmol/L sodium chloride, 0.1 mmol/L magnesium acetate, and 0.01% Tween (registered trademark) 20 (pH 7.2). As a control, an introduction of the fusion protein and a measurement of a signal were performed in the same manner as described above using a chip to which biotinylated polythymine had been bound, on which no polyadenine-added RNA aptamer had been immobilized.” left out
A binding ability of each of downsized RNA aptamers to His-MIF as a fusion protein was analyzed by the molecular interaction analysis. […]

The term Kd denotes the free concentration of one partner at which half of the binding sites on the other are occupied at equilibrium, for simple one-to-one binding. A low value points to tighter binding.

B1: His_6 (ssRNA)
RNA: GGGACGCUCACGUACGCUCAGGUGUAUUGGAUUUGCUCCGAGGGUGUAGACCCCACAGAUUCAGUGCCUGGACGUGCAGU
modifications: 3' A20 tail for capture
For B1, the binding result in data set [1] was “binds”.

B2: #733 (ssRNA)
RNA: GGGACGCUCACGUACGCUCACUUCCCUAGACCCUCCAGGUUACAGGCGCCGCCCGGAAUGUCAGUGCCUGGACGUGCAGU
modifications: 3' A20 tail for capture
B2 had a binding signal in data set [2] of 0.86 His-MIF/RNA bonds.

B3: #704 (ssRNA)
RNA: GGGACGCUCACGUACGCUCAUGUUCCUUUGGGUUAUUGGCUCCUUGUUGACCAGGGGAUGUCAGUGCCUGGACGUGCAGU
modifications: 3' A20 tail for capture
On to B3, for which the binding signal in data set [2] is 0.96 His-MIF/RNA bonds.

B4: shot47 (ssRNA)
RNA: GGGACGCUCACGUACGCUCACGUCCGAUCGAUACUGGUAUAUUGGCGCCUUCGUGGAAUGUCAGUGCCUGGACGUGCAGU
modifications: 3' A20 tail for capture
Turning to B4, the binding signal in data set [2] (label: biotin-T20 hybridised to tail, stem-loop) amounted to 1.88 His-MIF/RNA bonds. The affinity in data set [3], expressed as Kd, was 3.78 pM.

B5: His_2 (ssRNA)
RNA: GGGACGCUCACGUACGCUCAGGUGAAUUGGCCGCCGUUCUUUCCGUGGAAUGACGCGAUGUCAGUGCCUGGACGUGCAGU
modifications: 3' A20 tail for capture
With B5, the binding result in data set [1] is “binds”.

B6: His_1 (ssRNA)
RNA: GGGACGCUCACGUACGCUCAGGUGAACUGGUCCGCAUUUAGCUUUCUUAUUUGCGGGUAUUCAGUGCCUGGACGUGCAGU
modifications: 3' A20 tail for capture
Regarding B6, the binding result in data set [4] is listed as “binds”.

B7: #713 (ssRNA)
RNA: GGGACGCUCACGUACGCUCACAACACUCGAAGGGUUUAUUGGCCCCACCAUGGUGGAAUGUCAGUGCCUGGACGUGCAGU
modifications: 3' A20 tail for capture
The molecule B7 yielded a binding signal in data set [2] of 0.88 His-MIF/RNA bonds.

For the molecule GGGUAUAUUGGCGCCUUCGUGGAAUGUCAGUGCCUGG (ssRNA, 3' A20 tail for capture) [shot47sss], the binding result in data set [5] (label: biotin-T20 hybridised to tail (ELISA)) is “binds”.

B8: His_4 (ssRNA)
RNA: GGGACGCUCACGUACGCUCAUAAGGGUGUACUGGCGAUUGUUGGGACGCACUUCAAUUUGUCAGUGCCUGGACGUGCAGU
modifications: 3' A20 tail for capture
Turning to B8, the binding result in data set [1] is “binds”.

B9: #47s (ssRNA)
RNA: GGGUACGCUCAGGUAUAUUGGCGCCUUCGUGGAAUGUCAGUGCCUGGACGUGCAGU
modifications: 3' A20 tail for capture
B9: the binding result in data set [5] was “binds”.

B10: His_5 (ssRNA)
RNA: GGGACGCUCACGUACGCUCAGAACCCGUAUUGGUCACAGGUGGAUUGGUCUAUAUUGUUAUCAGUGCCUGGACGUGCAGU
modifications: 3' A20 tail for capture
Consider B10, for which the binding result in data set [1] was “binds”.

B11: His_10 (ssRNA)
RNA: GGGACGCUCACGUACGCUCAUUAGCUUAGCUUCAUGCCCGGGUGUACUGGAGAUCUCUUAUCAGUGCCUGGACGUGCAGU
modifications: 3' A20 tail for capture
B11: the binding result in data set [1] was “binds”.

B12: His_3 (ssRNA)
RNA: GGGACGCUCACGUACGCUCAGGUGUACUGGCACUACUGAAAUUUCAUUUGAGUAGGUCUGUCAGUGCCUGGACGUGCAGU
modifications: 3' A20 tail for capture
As for B12, the binding result in data set [1] is reported as “binds”.
